For the assay, the target named is T1, Mycobacterium smegmatis DNA gyrase subunit A (GyrA) (M. smegmatis, UniProt P48354 1-842).
T1 construct: DNA gyrase subunit A, Mycobacterium smegmatis; also called MsGyrA; M. smegmatis GyrA
Put plainly: cross-linking; glutaraldehyde; gyrase subunits mixed 1:1 in supercoiling reaction buffer, on ice 30 min, then cross-linked at 37°C for 30 min; products resolved on SDS-PAGE, silver stained. As to conditions: both partners purified.

B1: Mycobacterium smegmatis DNA gyrase subunit B (GyrB) (natural protein, M. smegmatis, UniProt A0QNE0 1-675, looked up)
chain: MAAQKNNAPKEYGADSITILEGLEAVRKRPGMYIGSTGERGLHHLIWEVVDNAVDEAMAGFATRVDVKIHADGSVEVRDDGRGIPVEMHATGMPTIDVVMTQLHAGGKFDGETYAVSGGLHGVGVSVVNALSTRLEATVLRDGYEWFQYYDRSVPGKLKQGGETKETGTTIRFWADPEIFETTDYNFETVARRLQEMAFLNKGLTIELTDERVTAEEVVDDVVKDTAEAPKTADEKAAEATGPSKVKHRVFHYPGGLVDYVKHINRTKTPIQQSIIDFDGKGPGHEVEIAMQWNAGYSESVHTFANTINTHEGGTHEEGFRAALTSVVNRYAKDKKLLKDKDPNLTGDDIREGLAAVISVKVAEPQFEGQTKTKLGNTEVKSFVQKICNEQLQHWFEANPAEAKTVVNKAVSSAQARIAARKARELVRRKSATDIGGLPGKLADCRSTDPSKSELYVVEGDSAGGSAKSGRDSMFQAILPLRGKIINVEKARIDRVLKNTEVQSIITALGTGIHDEFDISKLRYHKIVLMADADVDGQHISTLLLTLLFRFMKPLVENGHIFLAQPPLYKLKWQRSEPEFAYSDRERDGLLEAGRAAGKKINVDDGIQRYKGLGEMDAKELWETTMDPSVRVLRQVTLDDAAAADELFSILMGEDVEARRSFITRNAKDVRFLDV
notes: DNA gyrase subunit B, Mycobacterium smegmatis, wild type; also called MsGyrB; M. smegmatis GyrB
B1: the binding result is listed as “binds”.

(Values after publication PMC3510509, “Binding of two DNA molecules by type II topoisomerases for decatenation” (Nucleic Acids Research, 2012).)
